Test system: MS2 coat protein
Assay: apparent KD of MS2 coat protein; higher = weaker reporter binding
Details: Eterna round: R107
Method in brief: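 Designed RNA switches were transcribed on-chip from Illumina sequencing clusters and titrated with SNAP-549-labelled MS2 coat protein in twofold steps from 0.7 or 1.5 nM up to 3 µM. Each step lasted 0.8–1.5 h at first and 10–20 min by the end, in 100 mM Tris-HCl pH 7.5, 80 mM KCl and 4 mM MgCl2, without or with constant ligand. Apparent KD is the median, for each design, of fits to normalised cluster binding curves.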

[1] = input ligand: theophylline 20 uM
[2] = input ligand: theophylline 2 mM
[3] = input ligand: tryptophan 2.4 mM

| Sequence | apparent KD of MS2 coat protein (input ligand: arginine 13.2 mM) | apparent KD of MS2 coat protein (input ligand: none) | apparent KD of MS2 coat protein [1] | apparent KD of MS2 coat protein [2] | apparent KD of MS2 coat protein [3] |
| --- | --- | --- | --- | --- | --- |
| UAUCCACAUGAGGAUCACCCAUGUUAGGAAGGAGCGGUGAAUGAACCAGGUAGGUCGCCUAGCUGAGGACCAUCAAUGGAUUCGU [Exclusion - Arginine A (Freestyle 14)] | 0.0181 µM | 0.0318 µM | 0.0354 µM | 0.0368 µM | 0.0381 µM |
| GGGCAAGAGGGAAGGAGCGUCAGCUGAGUCACAUGAGGAUCACCCAUGUAGCACAUAGUGUGACAGGUAGGUCGCCCUCUGCCCU [SS-ArgB5] | 0.0111 µM | 0.00919 µM | 0.0144 µM | 0.0114 µM | 0.0116 µM |
| UACUUGCUGACGGCCGCCACUAGAACAUGAGGAUCACCCAUGUACCCGGUCCUAAUCCUCAUGACUAGGACCGGGUCAGCAAGAU [(Trp1)-(Ms2)-(T)'-(M)'-(Trp2)_Design2] | 0.0264 µM | – | 0.0421 µM | 0.0355 µM | – |
| UAACAUGAGGAUCACCCAUGUAUACUUAGUCGAGGACCGGUACGGCCGCCACUCGUACUUCAAGAUUUGGCGGAAAAUGUAUGUA [JR_ExcTryptoA_Sub021] | 0.0142 µM | – | 0.0156 µM | 0.0125 µM | – |
| AAUAAUAAGGCGGCCGCCACUAAACAUGAGGAUCACCCAUGUCUCGAGGGCUUGCGUUGGGAAAGUAGGACCGGGCCAAUAAUAA [Exclusion - Tryptophan B (Freestyle 7)] | 0.0102 µM | 0.0187 µM | 0.0205 µM | 0.0149 µM | 0.0133 µM |
| GUACACAUGAGGAUCACCCAUGUACUGGUACGAGGACCGGUACGGCCGCCACUCGCCGAGAUUCAUAACACAUCAGAAAGCUCAC [theeternabot_sameState_MS2_Trp_A_45] | 0.0135 µM | – | 0.0276 µM | 0.0188 µM | – |
| CCUGCGUUUCUUUUCUUUCGCAGGAAUGAUACCAGUAGGGAAACCUACCCUUGGCAGCAUGGGUAACAUGAGGAUCACCCAUGUU [SSThA NP+V+V2 #5 Same Structure] | 0.0932 µM | – | 0.392 µM | – | 0.343 µM |
| GCACAACAUGAGGAUCACCCAUGUCGAGAUACCAGAACAUAUAUAUUCCCUUGGCAGCUCACACCUUUAAUGUAAAAUUCUUUGG [theeternabot_sameState_MS2_Theo_A_47] | 0.012 µM | – | 0.0159 µM | – | 0.0139 µM |
| GAAUUUAUAUGAAGGAGCGUCGAAAAUGGGUAAACAUGAGGAUCACCCAUGUAAAGGGAACGACAGGUAGGUCGCAUAUGGAUUC [AstromonsSSArgB#26] | 0.114 µM | 0.175 µM | 0.196 µM | 0.219 µM | 0.197 µM |
| CCGGCAUGUCGAAGGAGCGUCACAUGAGGAUCACCCAUGUACAUGAGGAUCACCCAUGUGUGACAGGUAGGUCGCGGCGGCCAGG [Exclusion Arginine B GF7] | 0.108 µM | 0.141 µM | 0.178 µM | 0.197 µM | 0.158 µM |
| CGAUGAUGAAGGGAUACCAGAAAUGGUAUUCCUUUAUUUCUUACAUGAGGAUCACCCAUGUUCCCUUGGCAGCUUUUUAUCAUCG [ETHB #6] | 0.0493 µM | – | 0.0826 µM | – | 0.0644 µM |
| ACAUGAGGAUCACCCAUGUAGUAGUCAGAAGGAGCGUGGAAUAACACAGGUAGGUCGCUGAUGUUUGGUUAAAUGUAAUCGUGUA [#30 Same State - Arginine A] | 0.0196 µM | 0.0174 µM | 0.0276 µM | 0.0183 µM | 0.0178 µM |
| GGUCUCUGGAGCGAUACCAGCUUAAGUGUACUGGCCAGGUACAUGAGGAUCACCCAUGUAAGCCCUUGGCAGCGCUCCAGAGACC [#1 Exclusion - Theophylline B Attempt #14 (HarryS)] | 0.0167 µM | 0.0104 µM | 0.0161 µM | 0.0415 µM | 0.0122 µM |
| ACAUGAGGAUCACCCAUGUUGAACUACCAUCGAGGACCGGUACGGCCGCCACUCGCGUUCUCCUUAGCAUCAAGGUCCGCGAAAC [theeternabot_exclusion_MS2_Trp_A_1] | 0.0103 µM | – | 0.0153 µM | 0.0136 µM | – |
| ACGUAAUGCAGAAGGAGCGUCUUAUGUAUACAUGAGGAUCACCCAUGUAAUAUGUGGUUGAGACAGGUAGGUCGCUGAAGUACGA [JR_SSArginiB_Sub009] | 0.0469 µM | 0.086 µM | 0.0941 µM | 0.0784 µM | 0.0587 µM |
| GACAUUAUCUGAAGGAGCGAGGUAAAUAGGGAUGAGCAUACAUGAGGAUCACCCAUGUGGCCUCAGGUAGGUCGCAGAUGAGAUU [Exclusion Arginine B GF26] | 0.0411 µM | 0.253 µM | 0.212 µM | 0.453 µM | 0.256 µM |
| GGGCGCUAUCCCGCGAGGGAUAGCGUUCGACGAGGACCGGUACGGCCGCCACUCGAACGAGUGGGUACAUGAGGAUCACCCAUGU [Gaa] | 0.0263 µM | 0.0335 µM | 0.0509 µM | 0.0333 µM | 0.0259 µM |

— the supplement of paper PMC9170038
